Test results taken from the supplement of paper PMC10126150.
± gives the standard deviation of the averaged measurements.

Tested on: ATP
Test: switch fluorescence ratio, 500 uM ATP over buffer (Cy3 cluster intensity, sum of 5 cycles each) (fold (ratio)); higher = stronger signal-on switching upon ATP binding; sequences stand for … in TCGTCGGCAGCGTCAGATGTGTATAAGAGACAGTTTTTTTTTTTTTTTTTTTTTTTTT…TC
Conditions: aptamer strand: ATP DNA aptamer (quencher-CACCTGGGGGAGTATTGCGGAGGAAGG + anchor), 100 nM annealed; ATP concentration: 500 uM
Outline: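 Exposure to 500 uM ATP lasted 15 min at 22 °C before imaging, and a selection-buffer image was taken beforehand, for Cy3-labelled switching-strand clusters on a modified Illumina MiSeq flow-cell annealed to 100 nM quencher-labelled ATP aptamer. Five buffer/ATP cycles were run with NaOH stripping and re-annealing between them. The fluorescence ratio per cluster is summed target-cycle over summed buffer-cycle Cy3 intensity, averaged per switch-domain sequence. Clusters outside 100-1000 RFU were excluded.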

Sequence	switch fluorescence ratio
TCTGGCGGGG	1.21 ± 0.38
GGGGCGCAGG	0.993 ± 0.011
GCAGTAGTTG	1.01 ± 0.026
ATCTATCTGT	1 ± 0.027
GGAGTTAGTC	1.01 ± 0.021
GAGTATTCGG	0.998 ± 0.031
TTTTATTACT	2.27 ± 1.8
TTTCGAATAT	0.9836 ± 0.0061
CTAGCATGGG	0.999 ± 0.029
GGTAACGTAG	0.991 ± 0.022
CGATGTAGTC	1.05 ± 0.022
GTGAGTCTGT	0.9891 ± 0.001
TTGGACTATA	1.02 ± 0.043
GCAAACGCAG	1.05 ± 0.032
GTCCCGACTT	1.01 ± 0.013
GGGGTTCGTA	0.966 ± 0.028
GGGAACACTT	0.998 ± 0.025
TAATGGGTGG	1.02 ± 0.083
ACTTGCTTTA	1.04 ± 0.017
TGTTAGGTAA	1.22 ± 0.32
CCTAATCGGT	1.006 ± 0.0095
CCTGTCAGGC	1.04 ± 0.026
CGGGTGGTAT	0.991 ± 0.023

Sequence	switch fluorescence ratio
ATCAGCCATA	1.03 ± 0.036
GGGACTATGA	1 ± 0.021
GAGGAGTAGG	1.08 ± 0.036
TTGCGGGCCG	0.967 ± 0.068
GTTTTGGGAT	1.02 ± 0.031
TGAAAAAAAC	0.9871 ± 0.0072
TTTGGTTGT	0.972 ± 0.013
ATATTAGTAT	1.01 ± 0.038
ACGTACACTT	1.45 ± 0.074
GTTACATTAA	1.01 ± 0.021
CCACGTTGAA	1.05 ± 0.033
ACGGAAAACA	1.019 ± 0.0039
TAATGTGGGA	0.96651 ± 0.00012
TACAGTAGAT	1.06 ± 0.038
GAGACGTTGG	0.985 ± 0.014
GTGTGAGTAG	1.02 ± 0.039
TGTAAATACA	1.15 ± 0.18
TGTTGTAAAG	0.985 ± 0.03
GATATTGCGA	1.02 ± 0.035
CACCCTACTA	1.29 ± 0.018
ACGGAAGTGC	1.12 ± 0.036
TTTATAGGGA	0.987 ± 0.015
AAAGGGCGTG	0.985 ± 0.022

Sequence	switch fluorescence ratio
GTTACTTGCC	0.992 ± 0.039
AGACGATTAG	0.977 ± 0.03
TTAGAGCTTC	1.01 ± 0.038
CAGGAGACGA	1.03 ± 0.025
GGTATCAGTT	1.0006 ± 0.0002
AACTATCTTG	1 ± 0.0027
GGTGCATATT	1.06 ± 0.081
TTTTTGTTAT	0.996 ± 0.02
TGGGCAAGGA	1.02 ± 0.028
TAATGATTTT	0.967 ± 0.031
TATTTTGTGT	0.998 ± 0.036
AGGGCGAAGA	0.96 ± 0.022
TAAAAAGGAT	1.01 ± 0.02
CAGTAGGGTA	1 ± 0.045
TTTTTTTATT	1 ± 0.03
GAAGGGATGT	1.01 ± 0.042
AAGGAGTGAC	1.05 ± 0.06
CCTGGGTACC	1.039 ± 0.0072
CGGTAGGATT	1.04 ± 0.014
AGGGATGTCC	1.01 ± 0.044
GCGGGGATCT	1.038 ± 0.0091
AAATTAGATG	1.009 ± 0.0051
AAGGGAATAG	1.02 ± 0.014

Sequence	switch fluorescence ratio
GGCGCTTATT	0.963 ± 0.014
TATTGTGTGT	0.987 ± 0.022
TGGGGGGTCT	1.02 ± 0.057
GAGAAGGGAT	0.999 ± 0.022
TCGAAGGGTG	0.999 ± 0.04
GGTTCAGGGT	1.02 ± 0.023
CGGGTAGTTG	0.995 ± 0.014
GGTGAGTGCA	1.02 ± 0.07
ATTAGTGTCA	1 ± 0.035
TAAACGGTGC	1.07 ± 0.023
GGTTTGCTGT	0.99034 ± 0.00027
ATTTACATTA	1.03 ± 0.021
TGCAGAGGAA	1.03 ± 0.018
ATACTTTATT	1.09 ± 0.034
TTCCAGTCC	1.06 ± 0.027
TTAAGGGATC	0.957 ± 0.038
GGTTTCGGTT	1.5 ± 0.86
GGGGTCCTTA	1 ± 0.018
GGGGACAAGT	1.0212 ± 0.00058
TAAGAGTAAT	0.985 ± 0.042
TTGGGATTAG	1.01 ± 0.029
GAGCAAGGTT	1.24 ± 0.2
TTTGAAGCAG	1.08 ± 0.068

Sequence	switch fluorescence ratio
GCTCAAGGTA	1.006 ± 0.0044
GCATGGTGAC	1.058 ± 0.0028
GGTCGCTACA	1.01 ± 0.026
AATGCGCATC	1.05 ± 0.023
ATCATAGGGG	1 ± 0.016
ATGCGTGTTT	1.003 ± 0.0014
TAATCATCGA	0.99 ± 0.017
TATCAGGTAG	1.001 ± 0.0052
GCTAATGGTC	0.977 ± 0.085
TTTCACGCTC	1.12 ± 0.21
ATGTTTTTTG	0.982 ± 0.023
ATTAAGGA	1 ± 0.051
GGTATGCGCT	0.9934 ± 0.0049
GGGGAGTAGG	1.03 ± 0.049
AGTCGGGGTA	1.02 ± 0.027
TGGGGGTTCC	1.01 ± 0.025
GCTGACTGGT	0.9939 ± 0.001
GAGTGGTACC	1.01 ± 0.025
CGGCCGGGGT	1.035 ± 0.0058
GATTAAAGCT	1.11 ± 0.039
GGATAGCTCG	0.987 ± 0.041
CAGGAACTTG	0.956 ± 0.023
ATGGGGGTTA	0.987 ± 0.04

Sequence	switch fluorescence ratio
TCTGGGGTGT	1.13 ± 0.18
TTCTTGGGTA	0.989 ± 0.011
TCTGAGGGTT	1.13 ± 0.12
GAGGTTATTA	1 ± 0.066
CGAACGGTGG	0.998 ± 0.056
ACAGGGTGTC	1.05 ± 0.031
GGTGCACGGT	0.978 ± 0.051
ATTTTTACAG	1.03 ± 0.032
TTTTCTTGTC	1.038 ± 0.0076
GATCGCGTAT	1.02 ± 0.0026
GGGTAATGCG	1.06 ± 0.058
TGGAATTAAC	1.02 ± 0.042
GAGAGATGTT	0.999 ± 0.021
ACGTATGAAA	1.09 ± 0.059
TTTAGGATAA	1.02 ± 0.013
GTGGTATGCA	1.02 ± 0.074
TTGTTGTTGG	1.01 ± 0.032
TTAGAGCTGG	1.01 ± 0.027
TCTATTTTGT	0.988 ± 0.017
GGGTACTATT	0.982 ± 0.031
GGCCTGGACG	1.05 ± 0.015
GCGGGTATTG	0.964 ± 0.038
AGTCTGAAGG	0.995 ± 0.014

Sequence	switch fluorescence ratio
TCAATCAGGT	1.032 ± 0.0019
TGGGTCGGCT	1.06 ± 0.1
ACCCGCCTTT	1.086 ± 0.0021
CGAGGTGAAG	0.9922 ± 0.0049
CCGAATAATT	1.08 ± 0.011
GACGACTTGA	1.02 ± 0.042
AAAATGGCTT	0.988 ± 0.034
ACCCTCGGGG	1.0015 ± 0.00096
GGTATACTTA	1.04 ± 0.0075
CGGAGGAACG	1.01 ± 0.038
ATTTACGGTG	1 ± 0.022
GTGGGAATTT	0.9823 ± 0.0081
CTTTTGAAGT	0.983 ± 0.01
GACGACGGGT	1.27 ± 0.041
ATGATGTAGG	1.033 ± 0.0075
TTACGGATTC	1.39 ± 0.5
GGGCAAGGCG	1.006 ± 0.0092
GGTGTGTAGA	1.02 ± 0.038
TGATGCCGAA	1.022 ± 0.0034
